In patent US20200392227A1 (LYVGEN BIOPHARMA, published 2020):
Read-outs that look alike come from different tables or passages of the source. Values belong to the binder of their own block, whether it stands above or below them.

How the values were obtained:
[1] = target: T1, human FcRI protein (MednaBio, E1031) (human, UniProt P12314 16-288, limits assumed); assay: BLI
T1 construct: Bought; loaded on anti-penta-HIS biosensors; also called FcγRI
How it was run: (§1)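 Binding was measured by biolayer interferometry on an Octet Red96 System. Commercial human Fc receptor proteins were loaded at 20 μg/mL onto anti-penta-HIS biosensors, which were then dipped into an 8-point 1:3 dilution series of test IgG starting at 300 nM in PBS with 0.1% BSA and 0.02% Tween-20, at pH 7.2 for Fcγ receptors and pH 6 for FcRn. Kd, kon and koff were obtained by global fitting, with data fitted to a 1:1 binding model.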

[2] = target: T2, human FcRIIA protein (MednaBio, E1033) (human, UniProt P12318 34-218, limits assumed); assay: BLI
T2 construct: Bought; also called FcγRIIA
T2 sequence (looked up): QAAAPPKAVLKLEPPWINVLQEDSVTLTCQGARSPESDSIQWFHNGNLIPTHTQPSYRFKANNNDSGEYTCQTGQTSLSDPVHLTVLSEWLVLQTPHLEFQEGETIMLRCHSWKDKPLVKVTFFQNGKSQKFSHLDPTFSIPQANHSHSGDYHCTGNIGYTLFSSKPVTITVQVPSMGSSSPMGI
How it was run: as §1

[3] = target: T3, human FcRIIB/C protein (MednaBio, E1034) (human, UniProt P31994 43-217, limits assumed); assay: BLI
T3 construct: Bought as FcRIIB/C; also called FcγRIIB; CD32B
T3 sequence (looked up): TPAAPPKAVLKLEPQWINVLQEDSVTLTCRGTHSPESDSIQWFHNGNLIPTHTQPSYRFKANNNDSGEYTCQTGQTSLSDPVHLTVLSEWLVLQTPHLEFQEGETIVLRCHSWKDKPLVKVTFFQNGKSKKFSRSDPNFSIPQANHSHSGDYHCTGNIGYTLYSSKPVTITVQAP
How it was run: as §1

[4] = target: T4, human FcRIIIA-F158 protein (MednaBio, E1036) (human, UniProt P08637 17-208); assay: BLI
T4 construct: Bought; also called FcγRIIIA(F)
How it was run: as §1

[5] = target: T5, human FcRIIIA-V158 protein (MednaBio, E1035) (human, UniProt P08637 17-208); assay: BLI
T5 construct: Bought; also called FcγRIIIA(V); FcgRIIIA(V)
How it was run: as §1

[6] = target: T6, human FcRIIIB protein (MednaBio, E1037) (human, UniProt O75015 17-200); assay: BLI
T6 construct: Bought; also called FcγRIIIB; FcgRIIIB
How it was run: as §1

[7] = target: T7, human FcRn protein (MednaBio, E1032) (human, UniProt P55899 24-297; P61769 21-119); assay: BLI
T7 construct: Bought; assays at pH 6
How it was run: as §1

[8] = target: T8, human FcγRIIC expressed on CHO cells (human, UniProt P31995 43-323); assay: FACS, CHO cells expressing FcγRIIC
T8 construct: whole, on cells
T8 sequence (looked up): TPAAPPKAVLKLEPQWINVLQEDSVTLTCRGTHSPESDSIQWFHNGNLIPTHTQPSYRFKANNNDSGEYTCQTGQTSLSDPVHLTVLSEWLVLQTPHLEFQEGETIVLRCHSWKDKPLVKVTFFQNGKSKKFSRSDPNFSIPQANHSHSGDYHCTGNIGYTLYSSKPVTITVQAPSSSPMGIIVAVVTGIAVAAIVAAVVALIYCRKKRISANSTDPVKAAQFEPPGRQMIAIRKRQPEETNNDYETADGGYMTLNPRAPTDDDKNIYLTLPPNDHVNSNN
Description: FIGS. 1A-1W are charts showing binding activity of various IgG variants as indicated to different types of Fcγ receptors expressed on CHO-K1 cells at the various concentrations as indicated. The concentrations of each IgG variant, from left to right, are 0 μg/ml, 0.3 μg/ml, 1 μg/ml, 3 μg/ml, and 10 μg/ml in FIGS. 1A-1C, 1E-J, 1L-1M, 1P-1R, and 1T-1V. For FIGS. 1D, 1K, 10, 1S, and 1w the bars, from left to right, correspond to the following concentrations of IgG variant: 0.3 μg/ml, 1 μg/ml, 3 μg/ml, and 10 μg/ml.
(§2) For FACS analysis of the IgG mutants' binding to different FcγRs, FcγR overexpressing CHO cells were harvested using trypsin-EDTA and were suspended in cold staining buffer (3% BSA in PBS). Test IgG mutants, which were diluted in staining buffer, were added into the cells. The mixture was incubated 4° C. for 2 hours, and then washed twice with cold staining buffer and re-suspended in PE-labeled anti-human IgG followed by incubation at 4° C. for 2 hours. The mixture was washed twice with staining buffer and re-suspended in 2% PFA in PBS for FACS.

[9] = target: T7, human FcRn protein (MednaBio, E1032); assay: BLI; remark: listed apart in the source
How it was run: as §1

[10] = target: T9, human FcγRI expressed on CHO cells (human, UniProt P12314 16-374); assay: FACS, CHO cells expressing FcγRI
T9 construct: whole, on cells
Description: as §2

[11] = target: T1, human FcRI protein (MednaBio, E1031); assay: BLI; remark: listed apart in the source
How it was run: as §1

[12] = target: T2, human FcRIIA protein (MednaBio, E1033); assay: BLI; remark: listed apart in the source
How it was run: as §1

[13] = target: T3, human FcRIIB/C protein (MednaBio, E1034); assay: BLI; remark: listed apart in the source
How it was run: as §1

[14] = target: T4, human FcRIIIA-F158 protein (MednaBio, …); assay: BLI; remark: listed apart in the source
How it was run: as §1

[15] = target: T5, human FcRIIIA-V158 protein (MednaBio, …); assay: BLI; remark: listed apart in the source
How it was run: as §1

[16] = target: T6, human FcRIIIB protein (MednaBio, E1037); assay: BLI; remark: listed apart in the source
How it was run: as §1

[17] = target: T7, human FcRn protein (MednaBio, E1032); assay: BLI; remark: listed apart in the source
How it was run: as §1

T6 sequence (O75015 17-200 limits assumed): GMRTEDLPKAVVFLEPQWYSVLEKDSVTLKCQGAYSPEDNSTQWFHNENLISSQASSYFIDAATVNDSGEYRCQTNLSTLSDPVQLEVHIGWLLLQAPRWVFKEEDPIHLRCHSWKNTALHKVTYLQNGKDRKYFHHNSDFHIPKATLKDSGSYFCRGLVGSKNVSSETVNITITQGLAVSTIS
T4 sequence (P08637 17-208 limits assumed): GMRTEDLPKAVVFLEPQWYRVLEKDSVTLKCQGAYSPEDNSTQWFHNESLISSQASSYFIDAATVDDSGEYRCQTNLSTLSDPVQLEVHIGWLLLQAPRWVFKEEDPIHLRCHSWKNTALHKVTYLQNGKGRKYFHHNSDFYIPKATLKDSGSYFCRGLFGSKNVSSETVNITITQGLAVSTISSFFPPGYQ
T1 sequence (P12314 16-288 limits assumed): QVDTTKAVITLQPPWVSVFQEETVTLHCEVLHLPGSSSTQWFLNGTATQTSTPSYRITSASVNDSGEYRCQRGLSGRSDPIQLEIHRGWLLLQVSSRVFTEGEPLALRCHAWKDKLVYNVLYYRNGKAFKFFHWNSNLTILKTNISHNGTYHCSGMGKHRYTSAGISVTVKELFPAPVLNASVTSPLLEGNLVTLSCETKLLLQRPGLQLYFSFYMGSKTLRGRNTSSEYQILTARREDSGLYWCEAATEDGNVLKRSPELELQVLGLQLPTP
T5 sequence (P08637 17-208 F176V): as the sequence (P08637 17-208 limits assumed) above, with F160V counted along it
T9 sequence (P12314 16-374): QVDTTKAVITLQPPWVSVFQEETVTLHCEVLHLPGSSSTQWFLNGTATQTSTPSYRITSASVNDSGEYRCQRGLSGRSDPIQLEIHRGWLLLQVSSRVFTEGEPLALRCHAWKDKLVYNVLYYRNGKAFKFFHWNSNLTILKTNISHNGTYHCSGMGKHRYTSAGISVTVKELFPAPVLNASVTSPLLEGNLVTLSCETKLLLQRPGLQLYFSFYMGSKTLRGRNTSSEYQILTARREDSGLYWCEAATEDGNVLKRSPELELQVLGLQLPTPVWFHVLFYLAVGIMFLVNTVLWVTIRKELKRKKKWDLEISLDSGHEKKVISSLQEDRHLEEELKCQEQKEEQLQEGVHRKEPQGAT

Kd [1]: 1.6 nM
koff [1]: 0.00047 s⁻¹
kon [1]: 300000 M⁻¹ s⁻¹
Kd [2]: 670 nM
koff [2]: 0.23 s⁻¹
kon [2]: 340000 M⁻¹ s⁻¹
Kd [3]: 640 nM
koff [3]: 0.18 s⁻¹
kon [3]: 280000 M⁻¹ s⁻¹
binding result [4]: no binding (tested: 300 nM)
Kd [5]: 290 nM
koff [5]: 0.073 s⁻¹
kon [5]: 250000 M⁻¹ s⁻¹
binding result [6]: no binding (tested: 300 nM)
Kd [7]: 22 nM
koff [7]: 0.0077 s⁻¹
kon [7]: 350000 M⁻¹ s⁻¹
binding result [8]: binds
B1: anti-CD137 IgG1 with Fc variant G1m5 (antibody)
heavy: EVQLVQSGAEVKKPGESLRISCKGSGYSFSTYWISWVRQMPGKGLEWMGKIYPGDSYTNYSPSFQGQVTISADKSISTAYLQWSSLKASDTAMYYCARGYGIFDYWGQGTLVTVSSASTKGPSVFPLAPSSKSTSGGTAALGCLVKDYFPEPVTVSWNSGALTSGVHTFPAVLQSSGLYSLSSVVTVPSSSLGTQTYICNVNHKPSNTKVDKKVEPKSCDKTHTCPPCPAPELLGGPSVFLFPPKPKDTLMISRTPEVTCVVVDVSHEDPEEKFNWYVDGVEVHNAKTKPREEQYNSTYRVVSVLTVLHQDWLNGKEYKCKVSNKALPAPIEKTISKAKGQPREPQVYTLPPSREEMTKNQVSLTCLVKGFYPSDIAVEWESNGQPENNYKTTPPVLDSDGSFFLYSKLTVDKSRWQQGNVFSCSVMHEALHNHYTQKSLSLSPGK
light: SYELTQPPSVSVSPGQTASITCSGDNIGDQYAHWYQQKPGQSPVLVIYQDKNRPSGIPERFSGSNSGNTATLTISGTQAMDEADYYCATYTGFGSLAVFGGGTKLTVLGQPKAAPSVTLFPPSSEELQANKATLVCLISDFYPGAVTVAWKADSSPVKAGVETTTPSKQSNNKYAASSYLSLTPEQWKSHRSYSCQVTHEGSTVEKTVAPTECS
notes: copies: 2 + 2

Kd [9]: 11 nM
koff [9]: 0.0068 s⁻¹
kon [9]: 610000 M⁻¹ s⁻¹
binding result [10]: binds
B2: anti-CD137 IgG4 with Fc variant G4m18 (antibody)
heavy: EVQLVQSGAEVKKPGESLRISCKGSGYSFSTYWISWVRQMPGKGLEWMGKIYPGDSYTNYSPSFQGQVTISADKSISTAYLQWSSLKASDTAMYYCARGYGIFDYWGQGTLVTVSSASTKGPSVFPLAPCSRSTSESTAALGCLVKDYFPEPVTVSWNSGALTSGVHTFPAVLQSSGLYSLSSVVTVPSSSLGTKTYTCNVDHKPSNTKVDKRVESKYGPPCPPCPAPEFLSVFLFPPKPKDTLMISRTPEVTCVVVDVSQEDPEVQFNWYVDGVEVHNAKTKPREEQFNSTYRVVSVLTVLHQDWLNGKEYKCKVSNKGFPSSIEKTISKAKGQPREPQVYTLPPSQEEMTKNQVSLTCLVKGFYPSDIAVEWESNGQPENNYKTTPPVLDSDGSFFLYSRLTVDKSRWQEGNVFSCSVMHEALHNHYTQKSLSLSLGK
light: B1 light
notes: copies: 2 + 2

Kd [1]: 3.1 nM
koff [1]: 0.0016 s⁻¹
kon [1]: 510000 M⁻¹ s⁻¹
Kd [2]: 680 nM
koff [2]: 0.13 s⁻¹
kon [2]: 180000 M⁻¹ s⁻¹
Kd [3]: 25 nM
koff [3]: 0.0051 s⁻¹
kon [3]: 200000 M⁻¹ s⁻¹
Kd [4]: 180 nM
koff [4]: 0.091 s⁻¹
kon [4]: 520000 M⁻¹ s⁻¹
Kd [5]: 86 nM
koff [5]: 0.1 s⁻¹
kon [5]: 1.2e+06 M⁻¹ s⁻¹
binding result [6]: no binding (tested: 300 nM)
Kd [7]: 19.1 nM
koff [7]: 0.0116 s⁻¹
kon [7]: 607000 M⁻¹ s⁻¹
binding result [8]: binds
B3: anti-CD137 IgG1 with Fc variant G1m9 (antibody)
heavy: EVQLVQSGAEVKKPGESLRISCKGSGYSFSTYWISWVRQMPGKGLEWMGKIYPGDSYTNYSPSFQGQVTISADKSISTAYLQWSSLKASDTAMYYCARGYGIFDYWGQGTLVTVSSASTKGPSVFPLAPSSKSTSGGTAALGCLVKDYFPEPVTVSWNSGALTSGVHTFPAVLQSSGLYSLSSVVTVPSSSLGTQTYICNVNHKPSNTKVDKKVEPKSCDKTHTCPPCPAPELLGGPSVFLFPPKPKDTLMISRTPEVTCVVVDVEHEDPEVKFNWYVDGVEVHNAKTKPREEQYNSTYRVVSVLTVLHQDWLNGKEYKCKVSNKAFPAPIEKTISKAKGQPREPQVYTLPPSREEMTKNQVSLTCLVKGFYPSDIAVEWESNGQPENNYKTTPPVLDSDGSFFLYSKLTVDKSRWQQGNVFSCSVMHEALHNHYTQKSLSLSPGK
light: B1 light
notes: copies: 2 + 2

Kd [1]: 2.5 nM
koff [1]: 0.0016 s⁻¹
kon [1]: 630000 M⁻¹ s⁻¹
Kd [2]: 290 nM
koff [2]: 0.11 s⁻¹
kon [2]: 380000 M⁻¹ s⁻¹
Kd [3]: 110 nM
koff [3]: 0.032 s⁻¹
kon [3]: 280000 M⁻¹ s⁻¹
Kd [4]: 140 nM
koff [4]: 0.05 s⁻¹
kon [4]: 350000 M⁻¹ s⁻¹
Kd [5]: 87 nM
koff [5]: 0.039 s⁻¹
kon [5]: 440000 M⁻¹ s⁻¹
binding result [6]: no binding (tested: 300 nM)
Kd [7]: 15 nM
koff [7]: 0.01 s⁻¹
kon [7]: 670000 M⁻¹ s⁻¹
binding result [8]: binds
B4: anti-CD137 IgG1 with Fc variant G1m7 (antibody)
heavy: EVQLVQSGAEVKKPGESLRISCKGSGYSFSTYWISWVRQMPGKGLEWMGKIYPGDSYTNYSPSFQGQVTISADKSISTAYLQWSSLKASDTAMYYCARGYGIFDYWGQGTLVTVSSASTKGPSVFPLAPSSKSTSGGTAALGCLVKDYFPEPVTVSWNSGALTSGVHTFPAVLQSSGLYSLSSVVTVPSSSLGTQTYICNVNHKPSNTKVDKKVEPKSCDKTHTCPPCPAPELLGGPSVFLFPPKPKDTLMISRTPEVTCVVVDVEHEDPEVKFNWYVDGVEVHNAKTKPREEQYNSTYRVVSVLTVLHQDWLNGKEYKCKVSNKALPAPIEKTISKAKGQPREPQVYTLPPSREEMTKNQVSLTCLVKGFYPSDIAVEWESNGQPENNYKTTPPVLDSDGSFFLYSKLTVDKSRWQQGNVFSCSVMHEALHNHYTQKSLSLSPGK
light: B1 light
notes: copies: 2 + 2

Kd [1]: 2.5 nM
koff [1]: 0.0016 s⁻¹
kon [1]: 630000 M⁻¹ s⁻¹
Kd [2]: 270 nM
koff [2]: 0.17 s⁻¹
kon [2]: 610000 M⁻¹ s⁻¹
Kd [3]: 420 nM
koff [3]: 0.11 s⁻¹
kon [3]: 270000 M⁻¹ s⁻¹
Kd [4]: 260 nM
koff [4]: 0.057 s⁻¹
kon [4]: 220000 M⁻¹ s⁻¹
Kd [5]: 230 nM
koff [5]: 0.074 s⁻¹
kon [5]: 320000 M⁻¹ s⁻¹
binding result [6]: no binding (tested: 300 nM)
Kd [7]: 16.5 nM
koff [7]: 0.0111 s⁻¹
kon [7]: 673000 M⁻¹ s⁻¹
binding result [8]: binds
B5: anti-CD137 IgG1 with Fc variant G1m8 (antibody)
heavy: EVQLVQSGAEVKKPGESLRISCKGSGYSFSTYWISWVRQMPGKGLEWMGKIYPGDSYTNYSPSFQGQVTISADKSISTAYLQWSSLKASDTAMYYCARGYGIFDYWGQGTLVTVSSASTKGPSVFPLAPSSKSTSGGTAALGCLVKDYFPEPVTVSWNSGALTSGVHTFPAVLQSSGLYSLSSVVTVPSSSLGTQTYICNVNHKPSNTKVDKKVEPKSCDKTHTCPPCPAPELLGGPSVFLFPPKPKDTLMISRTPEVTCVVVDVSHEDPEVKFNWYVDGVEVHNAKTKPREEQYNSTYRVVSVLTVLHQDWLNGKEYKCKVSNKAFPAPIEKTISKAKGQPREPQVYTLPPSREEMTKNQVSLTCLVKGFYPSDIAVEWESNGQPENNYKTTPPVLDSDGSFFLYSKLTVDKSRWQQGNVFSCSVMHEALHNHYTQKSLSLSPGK
light: B1 light
notes: copies: 2 + 2

Kd [11]: 37 nM
koff [11]: 0.0098 s⁻¹
kon [11]: 260000 M⁻¹ s⁻¹
Kd [12]: 530 nM
koff [12]: 0.14 s⁻¹
kon [12]: 260000 M⁻¹ s⁻¹
Kd [13]: 46 nM
koff [13]: 0.011 s⁻¹
kon [13]: 250000 M⁻¹ s⁻¹
binding result [14]: no binding (tested: 300 nM)
binding result [15]: no binding (tested: 300 nM)
binding result [16]: no binding (tested: 300 nM)
Kd [17]: 17 nM
koff [17]: 0.013 s⁻¹
kon [17]: 760000 M⁻¹ s⁻¹
B6: anti-CD137 IgG1 with Fc variant G1m29 (antibody)
heavy: EVQLVQSGAEVKKPGESLRISCKGSGYSFSTYWISWVRQMPGKGLEWMGKIYPGDSYTNYSPSFQGQVTISADKSISTAYLQWSSLKASDTAMYYCARGYGIFDYWGQGTLVTVSSASTKGPSVFPLAPSSKSTSGGTAALGCLVKDYFPEPVTVSWNSGALTSGVHTFPAVLQSSGLYSLSSVVTVPSSSLGTQTYICNVNHKPSNTKVDKKVEPKSCDKTHTCPPCPAPELLGPSVFLFPPKPKDTLMISRTPEVTCVVVDVEHEDPEVKFNWYVDGVEVHNAKTKPREEQYNSTYRVVSVLTVLHQDWLNGKEYKCKVSNKAFPAPIEKTISKAKGQPREPQVYTLPPSREEMTKNQVSLTCLVKGFYPSDIAVEWESNGQPENNYKTTPPVLDSDGSFFLYSKLTVDKSRWQQGNVFSCSVMHEALHNHYTQKSLSLSPGK
light: B1 light
notes: copies: 2 + 2
